To fix the notation:
B1: equine IgG1 D312M (antibody, part only; not given: Variable domains, not shown: another chain or arm of the molecule)
constant: ASTTAPKVFALAPGCGTTSDSTVALGCLVSGYFPEPVKVSWNSGSLTSGVHTFPSVLQSSGFYSLSSMVTVPASTWTSETYICNVVHAASNFKVDKRIEPIPDNHQKVCDMSKCPKCPAPELLGGPSVFIFPPNPKDTLMITRTPEVTCVVVDVSQENPDVKFNWYMDGVEVRTATTRPKEEQFNSTYRVVSVLRIQHQMWLSGKEFKCKVNNQALPQPIERTITKTKGRSQEPQVYVLAPHPDELSKSKVSVTCLVKDFYPPEINIEWQSNGQPELETKYSTTQAQQDSDGSYFLYSKLSVDRNRWQQGTTFTCGVMHEALHNHYTQKNVSKNPGK
B2: equine IgG1 G426C (antibody, part only; not given: variable domains, not shown: another chain or arm of the molecule)
constant: ASTTAPKVFALAPGCGTTSDSTVALGCLVSGYFPEPVKVSWNSGSLTSGVHTFPSVLQSSGFYSLSSMVTVPASTWTSETYICNVVHAASNFKVDKRIEPIPDNHQKVCDMSKCPKCPAPELLGGPSVFIFPPNPKDTLMITRTPEVTCVVVDVSQENPDVKFNWYMDGVEVRTATTRPKEEQFNSTYRVVSVLRIQHQDWLSGKEFKCKVNNQALPQPIERTITKTKGRSQEPQVYVLAPHPDELSKSKVSVTCLVKDFYPPEINIEWQSNGQPELETKYSTTQAQQDSDGSYFLYSKLSVDRNRWQQGTTFTCCVMHEALHNHYTQKNVSKNPGK
B3: equine IgG1 D312Q (antibody, part only; not given: variable domains, not shown: another chain or arm of the molecule)
constant: ASTTAPKVFALAPGCGTTSDSTVALGCLVSGYFPEPVKVSWNSGSLTSGVHTFPSVLQSSGFYSLSSMVTVPASTWTSETYICNVVHAASNFKVDKRIEPIPDNHQKVCDMSKCPKCPAPELLGGPSVFIFPPNPKDTLMITRTPEVTCVVVDVSQENPDVKFNWYMDGVEVRTATTRPKEEQFNSTYRVVSVLRIQHQQWLSGKEFKCKVNNQALPQPIERTITKTKGRSQEPQVYVLAPHPDELSKSKVSVTCLVKDFYPPEINIEWQSNGQPELETKYSTTQAQQDSDGSYFLYSKLSVDRNRWQQGTTFTCGVMHEALHNHYTQKNVSKNPGK
B4: equine IgG1 G426F (antibody, part only; not given: variable domains, not shown: another chain or arm of the molecule)
constant: ASTTAPKVFALAPGCGTTSDSTVALGCLVSGYFPEPVKVSWNSGSLTSGVHTFPSVLQSSGFYSLSSMVTVPASTWTSETYICNVVHAASNFKVDKRIEPIPDNHQKVCDMSKCPKCPAPELLGGPSVFIFPPNPKDTLMITRTPEVTCVVVDVSQENPDVKFNWYMDGVEVRTATTRPKEEQFNSTYRVVSVLRIQHQDWLSGKEFKCKVNNQALPQPIERTITKTKGRSQEPQVYVLAPHPDELSKSKVSVTCLVKDFYPPEINIEWQSNGQPELETKYSTTQAQQDSDGSYFLYSKLSVDRNRWQQGTTFTCFVMHEALHNHYTQKNVSKNPGK
B5: equine IgG1 M252W (antibody, part only; not given: variable domains, not shown: another chain or arm of the molecule)
constant: ASTTAPKVFALAPGCGTTSDSTVALGCLVSGYFPEPVKVSWNSGSLTSGVHTFPSVLQSSGFYSLSSMVTVPASTWTSETYICNVVHAASNFKVDKRIEPIPDNHQKVCDMSKCPKCPAPELLGGPSVFIFPPNPKDTLWITRTPEVTCVVVDVSQENPDVKFNWYMDGVEVRTATTRPKEEQFNSTYRVVSVLRIQHQDWLSGKEFKCKVNNQALPQPIERTITKTKGRSQEPQVYVLAPHPDELSKSKVSVTCLVKDFYPPEINIEWQSNGQPELETKYSTTQAQQDSDGSYFLYSKLSVDRNRWQQGTTFTCGVMHEALHNHYTQKNVSKNPGK
B6: equine IgG1 G426D (antibody, part only; not given: variable domains, not shown: another chain or arm of the molecule)
constant: ASTTAPKVFALAPGCGTTSDSTVALGCLVSGYFPEPVKVSWNSGSLTSGVHTFPSVLQSSGFYSLSSMVTVPASTWTSETYICNVVHAASNFKVDKRIEPIPDNHQKVCDMSKCPKCPAPELLGGPSVFIFPPNPKDTLMITRTPEVTCVVVDVSQENPDVKFNWYMDGVEVRTATTRPKEEQFNSTYRVVSVLRIQHQDWLSGKEFKCKVNNQALPQPIERTITKTKGRSQEPQVYVLAPHPDELSKSKVSVTCLVKDFYPPEINIEWQSNGQPELETKYSTTQAQQDSDGSYFLYSKLSVDRNRWQQGTTFTCDVMHEALHNHYTQKNVSKNPGK
B7: equine IgG1 D312S (antibody, part only; not given: variable domains, not shown: another chain or arm of the molecule)
constant: ASTTAPKVFALAPGCGTTSDSTVALGCLVSGYFPEPVKVSWNSGSLTSGVHTFPSVLQSSGFYSLSSMVTVPASTWTSETYICNVVHAASNFKVDKRIEPIPDNHQKVCDMSKCPKCPAPELLGGPSVFIFPPNPKDTLMITRTPEVTCVVVDVSQENPDVKFNWYMDGVEVRTATTRPKEEQFNSTYRVVSVLRIQHQSWLSGKEFKCKVNNQALPQPIERTITKTKGRSQEPQVYVLAPHPDELSKSKVSVTCLVKDFYPPEINIEWQSNGQPELETKYSTTQAQQDSDGSYFLYSKLSVDRNRWQQGTTFTCGVMHEALHNHYTQKNVSKNPGK
B8: equine IgG1 D312N (antibody, part only; not given: variable domains, not shown: another chain or arm of the molecule)
constant: ASTTAPKVFALAPGCGTTSDSTVALGCLVSGYFPEPVKVSWNSGSLTSGVHTFPSVLQSSGFYSLSSMVTVPASTWTSETYICNVVHAASNFKVDKRIEPIPDNHQKVCDMSKCPKCPAPELLGGPSVFIFPPNPKDTLMITRTPEVTCVVVDVSQENPDVKFNWYMDGVEVRTATTRPKEEQFNSTYRVVSVLRIQHQNWLSGKEFKCKVNNQALPQPIERTITKTKGRSQEPQVYVLAPHPDELSKSKVSVTCLVKDFYPPEINIEWQSNGQPELETKYSTTQAQQDSDGSYFLYSKLSVDRNRWQQGTTFTCGVMHEALHNHYTQKNVSKNPGK
B9: equine IgG1 D312V (antibody, part only; not given: Variable domains, not shown: another chain or arm of the molecule)
constant: ASTTAPKVFALAPGCGTTSDSTVALGCLVSGYFPEPVKVSWNSGSLTSGVHTFPSVLQSSGFYSLSSMVTVPASTWTSETYICNVVHAASNFKVDKRIEPIPDNHQKVCDMSKCPKCPAPELLGGPSVFIFPPNPKDTLMITRTPEVTCVVVDVSQENPDVKFNWYMDGVEVRTATTRPKEEQFNSTYRVVSVLRIQHQVWLSGKEFKCKVNNQALPQPIERTITKTKGRSQEPQVYVLAPHPDELSKSKVSVTCLVKDFYPPEINIEWQSNGQPELETKYSTTQAQQDSDGSYFLYSKLSVDRNRWQQGTTFTCGVMHEALHNHYTQKNVSKNPGK
B10: equine IgG1 G426E (antibody, part only; not given: Variable domains, not shown: another chain or arm of the molecule)
constant: ASTTAPKVFALAPGCGTTSDSTVALGCLVSGYFPEPVKVSWNSGSLTSGVHTFPSVLQSSGFYSLSSMVTVPASTWTSETYICNVVHAASNFKVDKRIEPIPDNHQKVCDMSKCPKCPAPELLGGPSVFIFPPNPKDTLMITRTPEVTCVVVDVSQENPDVKFNWYMDGVEVRTATTRPKEEQFNSTYRVVSVLRIQHQDWLSGKEFKCKVNNQALPQPIERTITKTKGRSQEPQVYVLAPHPDELSKSKVSVTCLVKDFYPPEINIEWQSNGQPELETKYSTTQAQQDSDGSYFLYSKLSVDRNRWQQGTTFTCEVMHEALHNHYTQKNVSKNPGK
B11: equine IgG1 G426H (antibody, part only; not given: variable domains, not shown: another chain or arm of the molecule)
constant: ASTTAPKVFALAPGCGTTSDSTVALGCLVSGYFPEPVKVSWNSGSLTSGVHTFPSVLQSSGFYSLSSMVTVPASTWTSETYICNVVHAASNFKVDKRIEPIPDNHQKVCDMSKCPKCPAPELLGGPSVFIFPPNPKDTLMITRTPEVTCVVVDVSQENPDVKFNWYMDGVEVRTATTRPKEEQFNSTYRVVSVLRIQHQDWLSGKEFKCKVNNQALPQPIERTITKTKGRSQEPQVYVLAPHPDELSKSKVSVTCLVKDFYPPEINIEWQSNGQPELETKYSTTQAQQDSDGSYFLYSKLSVDRNRWQQGTTFTCHVMHEALHNHYTQKNVSKNPGK
B12: equine IgG1 D312P (antibody, part only; not given: variable domains, not shown: another chain or arm of the molecule)
constant: ASTTAPKVFALAPGCGTTSDSTVALGCLVSGYFPEPVKVSWNSGSLTSGVHTFPSVLQSSGFYSLSSMVTVPASTWTSETYICNVVHAASNFKVDKRIEPIPDNHQKVCDMSKCPKCPAPELLGGPSVFIFPPNPKDTLMITRTPEVTCVVVDVSQENPDVKFNWYMDGVEVRTATTRPKEEQFNSTYRVVSVLRIQHQPWLSGKEFKCKVNNQALPQPIERTITKTKGRSQEPQVYVLAPHPDELSKSKVSVTCLVKDFYPPEINIEWQSNGQPELETKYSTTQAQQDSDGSYFLYSKLSVDRNRWQQGTTFTCGVMHEALHNHYTQKNVSKNPGK
B13: equine IgG1 D312Y (antibody, part only; not given: variable domains, not shown: another chain or arm of the molecule)
constant: ASTTAPKVFALAPGCGTTSDSTVALGCLVSGYFPEPVKVSWNSGSLTSGVHTFPSVLQSSGFYSLSSMVTVPASTWTSETYICNVVHAASNFKVDKRIEPIPDNHQKVCDMSKCPKCPAPELLGGPSVFIFPPNPKDTLMITRTPEVTCVVVDVSQENPDVKFNWYMDGVEVRTATTRPKEEQFNSTYRVVSVLRIQHQYWLSGKEFKCKVNNQALPQPIERTITKTKGRSQEPQVYVLAPHPDELSKSKVSVTCLVKDFYPPEINIEWQSNGQPELETKYSTTQAQQDSDGSYFLYSKLSVDRNRWQQGTTFTCGVMHEALHNHYTQKNVSKNPGK
B14: equine IgG1 G426A (antibody, part only; not given: variable domains, not shown: another chain or arm of the molecule)
constant: ASTTAPKVFALAPGCGTTSDSTVALGCLVSGYFPEPVKVSWNSGSLTSGVHTFPSVLQSSGFYSLSSMVTVPASTWTSETYICNVVHAASNFKVDKRIEPIPDNHQKVCDMSKCPKCPAPELLGGPSVFIFPPNPKDTLMITRTPEVTCVVVDVSQENPDVKFNWYMDGVEVRTATTRPKEEQFNSTYRVVSVLRIQHQDWLSGKEFKCKVNNQALPQPIERTITKTKGRSQEPQVYVLAPHPDELSKSKVSVTCLVKDFYPPEINIEWQSNGQPELETKYSTTQAQQDSDGSYFLYSKLSVDRNRWQQGTTFTCAVMHEALHNHYTQKNVSKNPGK
B15: equine IgG1 D312W (antibody, part only; not given: variable domains, not shown: another chain or arm of the molecule)
constant: ASTTAPKVFALAPGCGTTSDSTVALGCLVSGYFPEPVKVSWNSGSLTSGVHTFPSVLQSSGFYSLSSMVTVPASTWTSETYICNVVHAASNFKVDKRIEPIPDNHQKVCDMSKCPKCPAPELLGGPSVFIFPPNPKDTLMITRTPEVTCVVVDVSQENPDVKFNWYMDGVEVRTATTRPKEEQFNSTYRVVSVLRIQHQWWLSGKEFKCKVNNQALPQPIERTITKTKGRSQEPQVYVLAPHPDELSKSKVSVTCLVKDFYPPEINIEWQSNGQPELETKYSTTQAQQDSDGSYFLYSKLSVDRNRWQQGTTFTCGVMHEALHNHYTQKNVSKNPGK
B16: equine IgG1 D312T (antibody, part only; not given: Variable domains, not shown: another chain or arm of the molecule)
constant: ASTTAPKVFALAPGCGTTSDSTVALGCLVSGYFPEPVKVSWNSGSLTSGVHTFPSVLQSSGFYSLSSMVTVPASTWTSETYICNVVHAASNFKVDKRIEPIPDNHQKVCDMSKCPKCPAPELLGGPSVFIFPPNPKDTLMITRTPEVTCVVVDVSQENPDVKFNWYMDGVEVRTATTRPKEEQFNSTYRVVSVLRIQHQTWLSGKEFKCKVNNQALPQPIERTITKTKGRSQEPQVYVLAPHPDELSKSKVSVTCLVKDFYPPEINIEWQSNGQPELETKYSTTQAQQDSDGSYFLYSKLSVDRNRWQQGTTFTCGVMHEALHNHYTQKNVSKNPGK

By Kd is commonly meant the equilibrium constant for the complex coming apart. Low readings indicate a tighter complex, high ones a looser complex.

The test addresses equine FcRn (large alpha subunit p51) / equine beta-2-microglobulin complex, biotinylated (equine) (UniProt P30441). Briefly: SPR (Biacore), pH 6. For orientation: SPR reads the build-up and loss of mass on a sensor chip optically.
Sequence of UniProt P30441 (P30441 21-118, one chain of several): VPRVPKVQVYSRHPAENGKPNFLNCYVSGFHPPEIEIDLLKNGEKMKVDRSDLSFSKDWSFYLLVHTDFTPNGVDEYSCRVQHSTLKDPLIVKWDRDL
Molecule B1 returned a Kd of 23.4 nM.

In the case of B2, the Kd came to 20.4 nM.

Turning to B3, the Kd came out at 46 nM.

For the molecule B4, the dissociation constant Kd turned out to be 13.1 nM.

Take B5: the Kd was 26.6 nM.

The molecule B6 showed a Kd of 25.3 nM.

B7 came in with a Kd of 16.7 nM.

Molecule B8 displayed a Kd of 22.3 nM.

Take B9: the Kd worked out at 8.32 nM.

B10 gave a Kd of 24.1 nM.

Regarding B11, the Kd was found to be 12.8 nM.

B12 came in with a Kd of 8.88 nM.

As to B13, the Kd was 17.1 nM.

B14 gave a Kd of 17.6 nM.

In the case of B15, the Kd was found to be 21.6 nM.

B16 had a Kd of 20.3 nM.

The record behind these values is patent publication US20260070987A1.
